Twelve molecules from patent US20190262327A1 (AstraZeneca / MedImmune, published 2019) can be followed below.

B1: Abet0380-GL (germlined) IgG1-TM (antibody, V domains shown)
VH: EVQLLESGGGLVQPGGSLRLSCAASMGNFNYQTMWWVRQAPGKGLEWVSVIGKTNENIAYADSVKGRFTISRDNSKNTLYLQMNSLRAEDTAVYYCAREWMDHSRPYYYYGMDVWGQGTLVTVSS
VL: SYELTQPPSVSVSPGQTASITCSGHNLEDKFASWYQQKPGQSPVLVIYRDDKRPSGIPERFSASNSGHTATLTISGTQAMDEADYYCSSQDTVTRVFGGGTKLTVL
notes: also called Abet0380-GL IgG1-TM; Abet0380-GL IgG1TM

Experiment [1] addresses B1. The experiment can be described thus: HTRF competition: unlabelled peptide titrated against the binding of N-terminal biotin Abeta 1-42 (1.5 nM) to Abet0380-GL IgG1-TM (0.5 nM). On the procedure: The assay was then incubated for a further 2 hrs at room temperature before reading on an Envision plate reader (PerkinElmer) using a standard homogeneous time resolved fluorescence (HTRF) read protocol.
The final assay volume was 20 μl and all reagents were prepared in an assay buffer comprising MOPS pH7.4 (50 mM), potassium fluoride (0.4M), tween 20 (0.1%) & fatty acid free BSA (0.1%). The assay was performed in low volume 384 well black assay plates (Costar 3676).
(In general: In TR-FRET formats the signal depends on donor and acceptor labels being close together.)

Experiment [2] addresses T1, unlabelled murine Amyloid beta 1-42 peptide (murine, UniProt P12023 672-713).
T1 construct: domain: Amyloid beta 1-42 peptide
T1 peptide (looked up): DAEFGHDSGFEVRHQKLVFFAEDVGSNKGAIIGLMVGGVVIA
The experiment is described as follows: Surface plasmon resonance (BIAcore), antibody captured on protein G, single cycle with five peptide injections (64 to 1024 nM by paragraph 390). On the procedure: (§1) These experiments were performed essentially as described by Karlsson et al. (Karlsson et al., 1991).
(§2) The interaction between each test IgG and each peptide was estimated using assays in which the antibody was non-covalently captured by a protein G surface that was itself amine linked to a proprietary CM5 chip. […] The chip surface was regenerated between cycles by paired 40 second injections of 10 mM Glycine pH 2.0 to remove ligand and bound antibody. The test antibody was then reapplied for each peptide injection cycle.
(§3) Blank reference flow-cell data were subtracted from each IgG dataset and a zero-concentration antibody-only buffer blank was double-reference subtracted from the main dataset.

The target of experiment [3] is T2, unlabelled murine Amyloid beta 1-40 peptide (murine, UniProt P12023 672-711).
T2 construct: domain: Amyloid beta 1-40 peptide
T2 peptide (looked up): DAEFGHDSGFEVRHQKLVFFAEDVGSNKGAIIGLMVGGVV
The experiment is described as follows: Surface plasmon resonance (BIAcore), antibody captured on protein G, single cycle with five peptide injections. On the procedure: as §1, §2, §3
On the technique in general: SPR reads the build-up and loss of mass on a sensor chip optically.

Experiment [4] has as its target T3, biotinylated human Amyloid beta 1-40 peptide (human, UniProt P05067 672-711, biotinylated).
T3 construct: domain: Amyloid beta 1-40 peptide
Described as above. As to the method: as §1, §2, §3

Experiment [5] has as its target T4, synthetic human Amyloid beta 1-42 peptide (human, UniProt P05067 672-713).
T4 construct: domain: Amyloid beta 1-42 peptide; also called Abeta 1-42
The experiment can be described thus: SPR (BIAcore T-100); IgG captured on protein G, peptide 0.063-1024 nM in solution; 1:1 Langmuir fit. On the procedure: The chip surface was regenerated between cycles by paired 40 second injections of 10 mM Glycine pH 2.0 to remove ligand and bound antibody. The test antibody was then reapplied for each peptide injection.
Blank reference flow-cell data were subtracted from each IgG dataset and a zero-concentration antibody-only buffer blank was double-reference subtracted from the main dataset. An appropriate binding model was then fitted simultaneously to the data from each analyte titration using the BIAevaluation software.

Experiment [6] addresses T5, biotinylated synthetic human Amyloid beta 1-42 peptide (human, UniProt P05067 672-713, biotinylated (N-terminal biotin in Example 4)).
T5 construct: domain: Amyloid beta 1-42 peptide; Numbers 1-42 count on the Amyloid beta peptide, not on APP; also called biotinylated human Amyloid beta 1-42; N-terminal biotin Abeta 1-42
The experiment can be described thus: HTRF epitope competition; purified scFv titrated; competitor Abet0144-GL IgG1-TM. On the procedure:
(§4) Two thousand and twenty four scFv chosen at random from selection rounds 3 and 4 of the targeted mutagenesis approach described in section 1.2 were expressed in bacteria to produce unpurified periplasmic scFv.
(§5) One thousand six hundred and seventy two scFv, randomly selected from selection rounds 9 to 11, were screened in an epitope competition assay as described in section 1.3.
(§6) Where the assay was performed more than once, the absolute range of IC₅₀ values is provided.
Target sequence in this assay (P05067 672-713 limits assumed): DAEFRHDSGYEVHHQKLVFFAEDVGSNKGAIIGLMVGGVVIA

Experiment [7] has as its target T5, biotinylated synthetic human Amyloid …. The experiment can be described thus: HTRF epitope competition; purified scFv titrated; competitor Abet0144-GL IgG1-TM; range of repeats. As to the method: as §4, §5, §6
Target sequence in this assay (P05067 672-713 limits assumed): as above
Experiment [8] shares this target. The experiment can be described thus: SPR (ProteOn); biotinylated peptide on streptavidin chip, scFv in solution. As to the method:
as §1
The chip surface was regenerated between cycles by a single 60 second injection of 10 mM Glycine pH 2.0 to remove scFv bound to the peptide.
Each scFv at 100-200 nM was sequentially passed over the peptide surface for a sufficient amount of time to observe sensorgrams that could be fitted to an appropriate binding model with confidence. An irrelevant scFv blank was subtracted from the main dataset to reduce the impact of any buffer artefacts or non-specific binding effects. An appropriate binding model was then fitted to the data.
Target sequence in this assay (P05067 672-713 limits assumed): as above

The target is the same in experiment [9]. The experiment can be described thus: HTRF epitope competition: purified scFv titrated against the complex of biotinylated human Amyloid beta 1-42 and Abet0144-GL IgG1-TM.
Source text: as §4, §5

Turning to VHHQKLVFFAEDVGSNK (peptide, UniProt P05067 683-699, looked up, domain: Abeta 12-28) [human Abeta 12-28 peptide], the binding result in experiment [1] is “no binding (tested: log -5 M (10 uM))”.
Consider B1, for which the binding result in experiment [2] is “binds”. In [3], the binding result is given as “no binding”. The binding result in experiment [4] is reported as “no binding”. Besides, in experiment [5], the Kd came to 322 pM, the koff was determined as 0.000307 s⁻¹ and the kon came out at 952000 M⁻¹ s⁻¹.

B2: Abet0322b scFv (scFv, V domains shown, not shown: small tags and cut ends)
VH: EVQLLESGGGLVQPGGSLRLSCAASNEEFQYNPMWWVRQAPGKGLEWVSVIGSSGGATVYADAVKGRFTISRDNSENTLYLQMNSLRAEDTAVYYCAREWMDHSRPYYYYGMDVWGQGTLVTVSS
VL: SYELTQPPSVSVSPGQTASITCSGHNLGDKFASWYQQKPGQSPVLVIYRDDKRPSEIPERFSASNSGHTATLTISGTQATDEADYYCSSQDTVTRVFGGGTKLTVL
notes: Purified scFv expressed in E. coli
Molecule B2 displayed an IC50 in [6] of 710 pM. This molecule returned a concentration for half-maximal inhibition (IC50) in experiment [7] of 430 to 980 pM. In experiment [8], this molecule yielded a Kd of 812 pM, a koff of 0.000165 s⁻¹ and a kon of 203000 M⁻¹ s⁻¹.

B3: Abet0144-GL scFv (scFv, V domains shown, not shown: small tags and cut ends)
VH: EVQLLESGGGLVQPGGSLRLSCAASGFTFSVYTMWWVRQAPGKGLEWVSVIGSSGGTTVYADSVKGRFTISRDNSKNTLYLQMNSLRAEDTAVYYCAREWMDHSRPYYYYGMDVWGQGTLVTVSS
VL: SYELTQPPSVSVSPGQTASITCSGHNLEDKFASWYQQKPGQSPVLVIYRDDKRPSGIPERFSASNSGHTATLTISGTQAMDEADYYCQAQDSTTRVFGGGTKLTVL
notes: Purified scFv expressed in E. coli; also called parent clone
On to B3, for which the IC50 in experiment [6] was 14000 pM. The molecule further returned an IC50 in experiment [7] of 8100 to 18000 pM. In experiment [8], this molecule yielded a Kd of 58700 pM, a koff of 0.0066 s⁻¹ and a kon of 116000 M⁻¹ s⁻¹.

B4: Abet0377 scFv (scFv, V domains shown, not shown: small tags and cut ends)
VH: EVQLLESGGGLVQPGGSLRLSCAASGFNFNEQTLWWVRQAPGKGLEWVSVIGVGTKNIAYADTVKGRFTISRDNSKNTLYLQMNSLRAEDTAVYYCAREWMDHSRPYYYYGMDVWGQGTLVTVSS
VL: SYELTQPPSVSVSPGQTASITCSGHNTEHKWISWYQQKPGQSPVLVIYRDDKRPSGIPERFSATNSGHTATLTISGTQATDEADYYCSSQDTVTRVFGGGTKLTVL
notes: as for B2
Take B4: the “IC50 (read off the curve)” value in [9] is approximately 300 pM. The IC50 in experiment [6] turned out to be 320 pM. Besides, the IC50 in experiment [7] was in the range of 290 to 350 pM. In experiment [8], the Kd was determined as 154 pM, the koff worked out at 3.02e-05 s⁻¹ and the kon stood at 196000 M⁻¹ s⁻¹.

B5: Abet0371 scFv (scFv, V domains shown, not shown: small tags and cut ends)
VH: EVQLSESGGGLVQPGGSLRLSCAASHDAFPFDTMWWVRQAPGKGLEWVSVIGSSGGTTVYADSVKGRFTVSRDNSKNTLYLQMNSLRAEDTAVYYCAREWMDHSRPYYYYGMDVWGQGTLVTVSS
VL: SYELTQPPSVSVSPGQTASITCSGHNISSSWVSWYQQKPGQSPVLVIYRDDKRPSGIPERFSASNSGHTATLTISGTQATDEADYYCSSQDTVTRVFGGGTKLTVL
notes: as for B2
For B5, the IC50 in experiment [6] stood at 500 pM. In experiment [7], this molecule returned an IC50 of 460 to 530 pM. Also, in [8], the Kd amounted to 762 pM, the koff was determined as 0.000272 s⁻¹ and the kon was 357000 M⁻¹ s⁻¹.

B6: Abet0369 scFv (scFv, V domains shown, not shown: small tags and cut ends)
VH: EVQLLESGGGLVQPGGSLRLSCAASSFQISKNTMWWVRRAPGKGLEWVSVIGKDETRFNYADSVKGRFTISRDNSKNTLYLQMNSLRAEDTAVYYCAREWMDHSRPYYYYGMDVWGQGTLVTVSS
VL: SYGLTQPPSVSVSPGQTASITCSGRNIGDSWVAWYQQKPGQSPVLVIYRDDKRPSGIPERFSASNSGHTATLTISGTQATDEADYYCSSQDTVTRVFGGGTKLTVL
notes: as for B2
Turning to B6, the “IC50 (read off the curve)” value in experiment [9] was approximately 400 pM. Moreover, in [6], the IC50 stood at 360 pM. Besides, the IC50 in [7] fell in the range of 300 to 410 pM. In experiment [8], the Kd is 133 pM, the koff worked out at 4.34e-05 s⁻¹ and the kon worked out at 327000 M⁻¹ s⁻¹.

B7: Abet0374 scFv (scFv, V domains shown, not shown: small tags and cut ends)
VH: EVQLLESGGGLVQPGGSLRLSCAASGFQFKDTPMWWVRQAPGKGLEWVSVIGDQNHKKAYADSVKGRFTISRDNSKNTLYLQMNSLRAEDTAVYYCAREWMDHSRPYYYYGMDAWGQGTLVTVSS
VL: SYELTQPPSVSVTPGQTASITCSGHNLGGKFASWYQQKPGQSPVLVIYRDDKRPSGIPERFSASNFGHTATLTISGTQATDEADYYCSSQDTVTRVFGGGTKLTVL
notes: as for B2
B7 showed an IC50 in experiment [6] of 420 pM. Further, the IC50 in experiment [7] lay within 410 to 430 pM. Moreover, in experiment [8], the Kd amounted to 236 pM, the koff came out at 6.04e-05 s⁻¹ and the kon was determined as 256000 M⁻¹ s⁻¹.

B8: Abet0323b scFv (scFv, V domains shown, not shown: small tags and cut ends)
VH: EVQLLESGGGLVQPGGSLRLSCAASTSTFQEDTMWWVRQAPGKGLEWVSVIGPNPKNNAYADSVKGRFTISRDNSKNTLYLQMNSLRAEDTAVYYCAREWMDHSRPYYYYGMDVWGQGTLVTVSS
VL: SYELTQPPSVSVSPGQTASITCSGHNLEDKFASWYQQKPGQSPVLVIYRDDKRPSGVPERFSASNSGHTATLTISGTQATDEADYYCSSQDTVTRVFGGGTKLIVL
notes: as for B2
With B8, the concentration for half-maximal inhibition (IC50) in experiment [6] was found to be 670 pM. For the same molecule, in experiment [7], the IC50 lay in the range of 570 to 760 pM. Moreover, in experiment [8], the Kd amounted to 894 pM, the koff is 0.000188 s⁻¹ and the kon was found to be 210000 M⁻¹ s⁻¹.

B9: Abet0321b scFv (scFv, V domains shown, not shown: small tags and cut ends)
VH: EVQLLESGGGLVQPGGSLRLSCAASAYHSNHDPMWWVRQAPGKGLEWVSVIGSSGGTTAYADSVKGRFTISRDNSKNTLYLQMNSLRAEDTAVYYCAREWMDHSRPYYYYGMDVWGQGTLVTVSS
VL: SYELTQPPSVSVSPGQTASITCSGHNLEDKFASWYQQKPGQSPVLIIYRDDKRPSGIPERFSASNSGHTATLTISGTQATDEADYYCSSQDTVTRVFGGGTKLTVL
notes: as for B2
Molecule B9 displayed an IC50 in experiment [6] of 730 pM. Further, the IC50 in experiment [7] fell in the range of 690 to 760 pM. In experiment [8], this molecule gave a Kd of 222 pM, a koff of 3.33e-05 s⁻¹ and a kon of 150000 M⁻¹ s⁻¹.
Take LVFFAEDVGSNKGAIIGLMVGGVVIA (peptide, UniProt P05067 688-713, looked up, domain: Abeta 17-42) [human Abeta 17-42 peptide]: in experiment [1], the “IC50 (read off the curve)” value is approximately 5000 pM.
With DAEFRHDSGYEVHHQK (peptide, UniProt P05067 672-687, looked up, domain: Abeta 1-16) [human Abeta 1-16 peptide], the binding result in [1] is “no binding (tested: log -5 M (10 uM))”.

Broadly, the Kd is the equilibrium constant for the complex coming apart. For orientation: koff means a measure of how fast the partners let go of each other. High values mean fast dissociation, low ones slow dissociation. What is called kon is the rate constant with which the complex forms. Read a high kon as faster complex formation. A word on the IC50: it is the concentration at which inhibition is half-maximal. A lower IC50 goes with greater potency.
